Tested on: Escherichia coli TOP10
Test: shrunken log2 fold change of peptide-encoding DNA abundance (4.5 h post-induction vs induction); higher = less antimicrobial activity (less host growth inhibition)
Conditions: time post-induction: 4.5 h; library: site-saturation at positions 5, 18, 19, 20
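Also: peptides expressed intracellularly from a pBAD plasmid library in pooled LB shake-flask culture, induced with 0.3% L-arabinose, DNA abundance read by NGS, three biological replicates, DESeq2 with apeglm shrinkage.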

Sequence: RRIRFRPPRLPRPRPRPHMHPRP
- shrunken log2 fold change: -0.655

Sequence: RRIRRRPPRLPRPRPRPCANPRP
- shrunken log2 fold change: -0.0911

Sequence: RRIRVRPPRLPRPRPRPPSEPRP
- shrunken log2 fold change: -0.124

Sequence: RRIRGRPPRLPRPRPRPAEDPRP
- shrunken log2 fold change: 0.0402

Sequence: RRIRNRPPRLPRPRPRPETNPRP
- shrunken log2 fold change: 0.196

Sequence: RRIRLRPPRLPRPRPRPRFCPRP
- shrunken log2 fold change: -0.0895

Sequence: RRIRLRPPRLPRPRPRPSYKPRP
- shrunken log2 fold change: -0.456

Sequence: RRIRHRPPRLPRPRPRPNFMPRP
- shrunken log2 fold change: -0.5

Sequence: RRIRSRPPRLPRPRPRPNMLPRP
- shrunken log2 fold change: -0.323

Sequence: RRIRFRPPRLPRPRPRPENMPRP
- shrunken log2 fold change: -0.158

Sequence: RRIRWRPPRLPRPRPRPKWQPRP
- shrunken log2 fold change: 0.0119

Sequence: RRIRPRPPRLPRPRPRPLFMPRP
- shrunken log2 fold change: -0.38

Sequence: RRIRIRPPRLPRPRPRPVGDPRP
- shrunken log2 fold change: -0.0246

Sequence: RRIRYRPPRLPRPRPRPPCEPRP
- shrunken log2 fold change: -0.468

Sequence: RRIRHRPPRLPRPRPRPAINPRP
- shrunken log2 fold change: -0.221

Sequence: RRIRVRPPRLPRPRPRPQIIPRP
- shrunken log2 fold change: -0.299

Sequence: RRIRMRPPRLPRPRPRPVCQPRP
- shrunken log2 fold change: 0.13

Sequence: RRIRTRPPRLPRPRPRPQSVPRP
- shrunken log2 fold change: -0.104

Sequence: RRIRSRPPRLPRPRPRPNYWPRP
- shrunken log2 fold change: -0.143

Sequence: RRIRCRPPRLPRPRPRPSTIPRP
- shrunken log2 fold change: 0.255

Sequence: RRIRGRPPRLPRPRPRPLWQPRP
- shrunken log2 fold change: 0.766

Sequence: RRIRERPPRLPRPRPRPLDIPRP
- shrunken log2 fold change: -0.0284

Sequence: RRIRMRPPRLPRPRPRPADWPRP
- shrunken log2 fold change: 0.905

Sequence: RRIRRRPPRLPRPRPRPEKEPRP
- shrunken log2 fold change: 0.224

Sequence: RRIRLRPPRLPRPRPRPYAWPRP
- shrunken log2 fold change: 0.0863

Sequence: RRIRGRPPRLPRPRPRPFIQPRP
- shrunken log2 fold change: -0.382

Sequence: RRIRLRPPRLPRPRPRPEEMPRP
- shrunken log2 fold change: 0.034

Sequence: RRIRMRPPRLPRPRPRPIIMPRP
- shrunken log2 fold change: -0.46

Sequence: RRIRKRPPRLPRPRPRPWPGPRP
- shrunken log2 fold change: 0.342

Sequence: RRIRFRPPRLPRPRPRPRLKPRP
- shrunken log2 fold change: 0.0563

Sequence: RRIRNRPPRLPRPRPRPVCQPRP
- shrunken log2 fold change: -0.0808

Sequence: RRIRQRPPRLPRPRPRPHGQPRP
- shrunken log2 fold change: 0.184

Sequence: RRIRTRPPRLPRPRPRPDKHPRP
- shrunken log2 fold change: -0.551

Sequence: RRIRYRPPRLPRPRPRPYYSPRP
- shrunken log2 fold change: 0.0106

Sequence: RRIRGRPPRLPRPRPRPRHLPRP
- shrunken log2 fold change: 0.221

Sequence: RRIRDRPPRLPRPRPRPTEPPRP
- shrunken log2 fold change: 0.185

Sequence: RRIRERPPRLPRPRPRPNHEPRP
- shrunken log2 fold change: 0.0522

Sequence: RRIRNRPPRLPRPRPRPSKFPRP
- shrunken log2 fold change: -0.601

Sequence: RRIRLRPPRLPRPRPRPDARPRP
- shrunken log2 fold change: 0.0258

Sequence: RRIRTRPPRLPRPRPRPSKCPRP
- shrunken log2 fold change: -0.535

Sequence: RRIRKRPPRLPRPRPRPPGHPRP
- shrunken log2 fold change: 0.377

Sequence: RRIRARPPRLPRPRPRPGCMPRP
- shrunken log2 fold change: 0.727

Sequence: RRIRQRPPRLPRPRPRPESYPRP
- shrunken log2 fold change: -0.0748

Sequence: RRIRVRPPRLPRPRPRPRGCPRP
- shrunken log2 fold change: 0.374

Sequence: RRIRERPPRLPRPRPRPNRKPRP
- shrunken log2 fold change: -0.0495

Sequence: RRIRRRPPRLPRPRPRPPIIPRP
- shrunken log2 fold change: 0.164

Sequence: RRIRPRPPRLPRPRPRPNMDPRP
- shrunken log2 fold change: -0.674

Sequence: RRIRIRPPRLPRPRPRPEVMPRP
- shrunken log2 fold change: -0.195

Sequence: RRIRYRPPRLPRPRPRPTPWPRP
- shrunken log2 fold change: -0.145

Sequence: RRIRLRPPRLPRPRPRPHWHPRP
- shrunken log2 fold change: -0.249

Sequence: RRIRVRPPRLPRPRPRPRCDPRP
- shrunken log2 fold change: -0.0186

Sequence: RRIRCRPPRLPRPRPRPFSRPRP
- shrunken log2 fold change: -0.332

Sequence: RRIRQRPPRLPRPRPRPQFIPRP
- shrunken log2 fold change: -0.0627

Sequence: RRIRARPPRLPRPRPRPEECPRP
- shrunken log2 fold change: 1.27

Sequence: RRIRYRPPRLPRPRPRPTSPPRP
- shrunken log2 fold change: -0.0595

Sequence: RRIRVRPPRLPRPRPRPALDPRP
- shrunken log2 fold change: 0.357

Sequence: RRIRLRPPRLPRPRPRPGIFPRP
- shrunken log2 fold change: -0.313

Sequence: RRIRIRPPRLPRPRPRPILMPRP
- shrunken log2 fold change: -0.23

Sequence: RRIRRRPPRLPRPRPRPWSYPRP
- shrunken log2 fold change: -0.573

Sequence: RRIRIRPPRLPRPRPRPCPCPRP
- shrunken log2 fold change: -0.493

Sequence: RRIRIRPPRLPRPRPRPDMWPRP
- shrunken log2 fold change: -0.271

Sequence: RRIRKRPPRLPRPRPRPWDLPRP
- shrunken log2 fold change: -0.136

Sequence: RRIRNRPPRLPRPRPRPHRMPRP
- shrunken log2 fold change: -0.0233

From the supplement of paper PMC9112550, “Optimization of the antimicrobial peptide Bac7 by deep mutational scanning” (BMC Biology, 2022)
